Assay: yeast display, Sf9 membrane polyspecificity reagent, FACS + sequencing; frameworks hold sequencing errors
Summary of the method: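 A nanobody's polyreactivity label depends on the gate it was sorted from. Yeast display cells were stained with 10% biotinylated, detergent-solubilized Sf9 membrane reagent for 1 hour at 4 °C, enriched on streptavidin microbeads and sorted by FACS. The low and high (top ~1%) gates were set on anti-HA fluorescence for expression and streptavidin fluorescence for reagent binding.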

| Sequence | polyreactivity (PSR sort gate) |
| --- | --- |
| QVQLVESGGGLVQAGGSLRLSCAASGSTFRLYPMGWYRQAPGKERELVAAISRSGGSTYYADSVKGRFTISRDNAKNTVYLQMNRLKPEDTAVYYCAKRRPLYAHPDDYWGQGTQVTVSS | low polyreactivity |
| QVQLVESGGGLVQAGGSLRLSCAASGSTFRPNAMGWYRQAPGKERELVAAINRGGRTNYADSVKGRFTISRDNAKNTVYLQMISLKPEDTAVYYCAAYIAGRYGARGYDYWGQGTQVTVSS | high polyreactivity |
| QVQLVESGGGLVQAGGSLRLSCAASGSTFRQNAMGWYRQAPGKERELVAAISSIGDSTNYADSVKGRFTISRDNAKNTVYLQMNSLKPEDTAVYYCAARTVQQRRRLYYWGQGTQVTVSS | high polyreactivity |
| QVQLVESGGGLVQAGGSLRLSCAASGSTFRQYAMGWYRQEPGKERELVAAITWRGDNTYYADSVKGRFTISRDNAKNTVYLQMNSLKPEDTAVYYCAAEYTVYVTDWYDYYYWGQGTQVTVSS | low polyreactivity |
| QVQLVESGGGLVQAGGSLRLSCAASGSTFRRKVMGGYRQAPGKERELVASIRSGGTTNYADSVKGRFTISRDNAKNTVYLQMNSLKPEDTAVYYCNKRLFWYRHYYYLGQGTQVTVSS | high polyreactivity |
| QVQLVESGGGLVQAGGSLRLSCAASGSTFRRNAMGWYRQAPGKERELVAAISRRGGSTYYADSVKGRFTISRDNAKNTVYLQMNSLKPEDTAVYYCAADNTQVRPKYDYWGQGTQVTVSS | high polyreactivity |
| QVQLVESGGGLVQAGGSLRLSCAASGSTFRRNAMGWYRQAPGKERELVAAISTSGGTTYYADSVKGRFTISRDNAKNTVYLQMNSLKPEDTAVYYCNKGGISGRDYWGLGTQVTVSS | high polyreactivity |
| QVQLVESGGGLVQAGGSLRLSCAASGSTFRRNAMGWYRQAPGKERELVARISYRGGSTYYADSVKGRFTISRDNAKNTVYLQMNSLKPEDTAVYYCAARVYGVPEYDYWGQGTQVTVSS | low polyreactivity |
| QVQLVESGGGLVQAGGSLRLSCAASGSTFRRNDMGWYRQAPGKERELVAAITSGGITNYADSVKGRFTISRDNAKNTVYLQMNSLKPEDTAVYYCNKDSDLHHYHTEFDYWGQGTQVTVSS | low polyreactivity |
| QVQLVESGGGLVQAGGSLRLSCAASGSTFRRNTMGWYREAPGKEREFVAALSRRGGSTYYADSVKGRFTISRDNAKNTVYFQMNRLKPEDTGVYYCAAPGLSRLYNVYYWPYDYWGQGTQVTVSS | high polyreactivity |
| QVQLVESGGGLVQAGGSLRLSCAASGSTFRRYAMGGYRQAPGKERELVAAISRSGGTTYYADSVKGRFTISRDNAKNTVYLQMNSLKPEDTAVYYCNARYPVVRYDYWGQGTQVTVSS | high polyreactivity |
| QVQLVESGGGLVQAGGSLRLSCAASGSTFRRYAMGWYRQAPGKERELVAAISSGGSTYYADSVKGRFTISRDNAKNTVYLQMNSLKPEDTALYYCAKRPLKRQIPAVGYDYWGQGTQVTVSS | high polyreactivity |
| QVQLVESGGGLVQAGGSLRLSCAASGSTFRRYAMGWYRQAPGKERELVAAISWSGGSTYYADSVKGRFTISRDNAKNTVYLQMNSLKPEDTAVYYCAARGVTSYWQDYDYWGQGTQVTVSS | low polyreactivity |
| QVQLVESGGGLVQAGGSLRLSCAASGSTFRRYAMGWYRQAPGKERELVAAITRRGGSTYYADSVKGRFTISRDNAKNTVYLQMNSLKPEDTAVYYCNAVPVVRAGHGYDSWGQGTQVTVSS | high polyreactivity |
| QVQLVESGGGLVQAGGSLRLSCAASGSTFRRYAMGWYRQAPGKERELVAAITTNGGSTYYADSVKGRFTISRDNAKNTVYLQMNSLKPEDTAVYYCNARWPYRQRGYDYWGQGTQVTVSS | high polyreactivity |
| QVQLVESGGGLVQAGGSLRLSCAASGSTFRRYAMGWYRQAPGKERELVADIRGIGGSTYYADSVKGRFTISRDNAKNTVYLQMNSLKPEDTAVYYCNTSTLGGYYWGQGTQVTVSS | low polyreactivity |
| QVQLVESGGGLVQAGGSLRLSCAASGSTFRRYAMGWYRQAPGKERELVAGISYSGGRTYYADSVKGRFTISRDNAKNTVYLQMNSLKPEDTAVYYCAAKSFPSVRHHENYYWGQGTQVTVSS | high polyreactivity |
| QVQLVESGGGLVQAGGSLRLSCAASGSTFRRYARGWYRQAPGKERELVAAISTRGGSTYYADSVKGRFTISRDNAKNTVYLQMNSLKPEDTAVYYCAADEPKYTSSSSRRYGYWGQGTQVTVSS | high polyreactivity |
| QVQLVESGGGLVQAGGSLRLSCAASGSTFRSNAMGWYRQAPGKERELVAAITYSGGRTYYADSVKGRFTFSRDNAKNTVYLQMNSLIPEDTAVYYCAKVGWSRRYYYWGQGTQVTVSS | high polyreactivity |
| QVQLVESGGGLVQAGGSLRLSCAASGSTFRSYTMGWYRHAPGKEMELVARISRSGGSTYYADSVKGRFTISRDNAKNTVYLQMNSLKPEDTAVYYCAALYYVKPGQRYDYWGQGTQVTVSS | high polyreactivity |
| QVQLVESGGGLVQAGGSLRLSCAASGSTFRSYTMGWYRQAPGKERELVATIDWSAGNTRYADSVKGRFTISRDNAKNTVYLQMNSLKPEDTAVYYCNKDAGLWVSGTLYYWGQGTQVTVSS | low polyreactivity |
| QVQLVESGGGLVQAGGSLRLSCAASGSTFRTNVMGWYRQAPGKERELVAAITKRGSITYYADSVKGRFTISRDNAKNTVYLQMNSLKPEDTAVYYCAARKVAVRGYGYWGQGTQVTVSS | high polyreactivity |

| Sequence | polyreactivity (PSR sort gate) |
| --- | --- |
| QVQLVESGGGLVQAGGSLRLSCAASGSTFRTYAMGWYRQAPGKERELVAAISGDTSTNYADSVKGRFTISRDNAKNTVYLQMNSLKPEDTAVYYCAAYWTTYATLWYDYWGQGTQVTVSS | low polyreactivity |
| QVQLVESGGGLVQAGGSLRLSCAASGSTFRTYAMGWYRQAPGKERELVAAISRSGGSTYYADSVKGRFTISRDNAKNTFYLQMNSLKPEDTAVYYCAARGGRGWTPSDYWGQGTQVTVSS | high polyreactivity |
| QVQLVESGGGLVQAGGSLRLSCAASGSTFRVYAMGWYRQAPGKERELVAAISGSGGSTYYADSVKGRFTISRDNAKNTVYLQMNSLKPEDTAVYYCAGRSWYTEYYWGQGTQVTVSS | high polyreactivity |
| QVQLVESGGGLVQAGGSLRLSCAASGSTFRVYAMGWYRQAPGKERELVAAISWSAGSTYYADSVKGRFTISRDNAKNTVYLQMNSLKPEDTAVYYCNADPDRYDWYTYLYLADYWGQGTQVTVSS | low polyreactivity |
| QVQLVESGGGLVQAGGSLRLSCAASGSTFRVYDMGWYRQAPGKERELVASLSYSVGSTYYADSVKGRFTISRDNAKNTVYLQMNSLKPEDTAVYYCAARPSYQPSSLARYDYWGQGTQVTVSS | low polyreactivity |
| QVQLVESGGGLVQAGGSLRLSCAASGSTFRVYGMGWSRQAPGKERELVAVIRWRGGRTSYADSVKGRFTISRDYAKNTVYLQLNSLKPEDTAVYYCARQRSYGRSSYSYGYDYWGQGTQVTVSS | high polyreactivity |
| QVQLVESGGGLVQAGGSLRLSCAASGSTFRWNAMGWYRQAPGKERELVAAISNGGSTNYADSVKGRFTISRDNAKNTVYLQMNSLIPEDTAVYYCATDGWYGQHYYDYDFDYYYWGQGTQVTVSS | low polyreactivity |
| QVQLVESGGGLVQAGGSLRLSCAASGSTFRWYAMGWYRQAPGKERELVAAITSGGSTNYADSVKGRFTISRDNAKNTVYLQMNSLKPEDTAVYYCNKVYPVVRYEPQYDYWGQGTQVTVSS | low polyreactivity |
| QVQLVESGGGLVQAGGSLRLSCAASGSTFRYNAMGWYRQAPGKARELVAAITSGGGTNYADSVKGRFTISRDNAKNTVYLQMNSLNPEDTAVYYCAAPWGLGSELLKRDYWGQGTQVTVSS | low polyreactivity |
| QVQLVESGGGLVQAGGSLRLSCAASGSTFRYNAMGWYRQAPGKERELFAAISFSGGSTYYADSVKGRFTISRDNAKNTVYLQMNSLKPEDTAVYYCAARWSSWPSYLAVPRLYYWGQGTQVTVSS | high polyreactivity |
| QVQLVESGGGLVQAGGSLRLSCAASGSTFRYNAMGWYRQAPGKERELVAAISRIGGTTYADSVKGRFTISRDNAKNTVYLQMNSLKPEDTAVYYCARANWGYYGPEYGYWGQGTQVTVSS | low polyreactivity |
| QVQLVESGGGLVQAGGSLRLSCAASGSTFRYNAMGWYRQAPGKERELVAAITSGGRTTYADSVKGRFTISRDNAKNPVYLQMNSLKPEDTAVYYCAARRYGRNWHYDYWGHGTQVTVSS | high polyreactivity |
| QVQLVESGGGLVQAGGSLRLSCAASGSTFRYNAMGWYRQAPGKERELVAAITSGGTTNYADSVKGRFTISRDNAKNTVYLQMNSLKPEDTAVYYCNAYVAYWGWVYRVDYWGQGTQVTVSS | low polyreactivity |
| QVQLVESGGGLVQAGGSLRLSCAASGSTFRYNAMGWYRQAPGKERELVAGISYRGGTTYYADSVKGRFTISRDNAKNTVYLQMNSLKPEDTAVYYCAAAASSPGGWFYYWGQGTQVTVSS | high polyreactivity |
| QVQLVESGGGLVQAGGSLRLSCAASGSTFRYYAMGWYRQAPGKERELVAAISGSGGRTYYADSVKGRFTISRDNAKNTVYLQMNSLKPEDTAVYYCAASRYQFYWGQGTQVTVSS | high polyreactivity |
| QVQLVESGGGLVQAGGSLRLSCAASGSTFRYYAMGWYRQAPGKERELVAAISRSGGRTYYADSVKGRYTISRDYAKKTVYLQMNSLKPEDTAVYYCAVDIVSIRGYTYGYWGQGTQVTVSS | high polyreactivity |
| QVQLVESGGGLVQAGGSLRLSCAASGSTFRYYAMGWYRQAPGKERELVAAISWGAGSTYYADSVKGRFTISRDNAKNTVYLQMNSLKPEDTAVYYCNTLQITGWYDYWGQGTQVTVSS | high polyreactivity |
| QVQLVESGGGLVQAGGSLRLSCAASGSTFRYYAMGWYRQAPGKERELVAAITFDGGTTSYADSVKGRFTISRDNAKNTVYLQMNSLKPEDTAVYYCAREGRTYWSKSISPYWRYGYWGQGTQVTVSS | high polyreactivity |
| QVQLVESGGGLVQAGGSLRLSCAASGSTFRYYAMGWYRQAPGKERELVAAITTSGSRTYYADSVKGRFTISRDNAKNTVYLQMNSLKPEDTAVYYCAKDGWRYSQSLDWYRFGYWGQGTQVTVSS | high polyreactivity |
| QVQLVESGGGLVQAGGSLRLSCAASGSTFRYYAMGWYRQAPGKERELVARISWRGGSTYYADSVKGRFTISRDNAKNTVYLQMNRLKPEDTAVYYCAAVRWVRYRTSAYEYWGQGTLVTVSS | high polyreactivity |
| QVQLVESGGGLVQAGGSLRLSCAASGSTFRYYAMGWYRQAPGKVRELVAAITSSGTSTYYADSVTGRFTISRDNAKNTVYLQKNSLKPEDTAVYYCAAPPVYKWVSSRYDYWGQGTQVTVSS | low polyreactivity |

Reference: the nanobody polyreactivity screen of Harvey et al. (2022)
